Laboratory results as given in the DeepSol protein solubility set.

Assay: soluble on expression in E. coli; label from the status in PepcDB or PDB records

Sequence | soluble on expression in E. coli
MAHHHHHHMEQDAASRPVTESEQTTTSYHGHTVSFLLLLYRRLEFESSGSTRPKAMLLRSDDTSPWPSPAPLSPVPSRPSSCRSSFSSLSVTSCISIISLLISSKTAVSRFTSSSWRLRRSSSCCCNSCAVAILLPLRAHGTTQPTGKKKKKKKEREKRKTQDAHHN | not soluble
GHHHHHHAIAENLYFQSKDVPGFLQQSQSSGPGQPAVWHRLEELYTKKLWHQLTLQVLDFVQDPCFAQGDGLIKLYENFISEFEHRVNPLSLVEIILHVVRQMTDPNVALTFLEKTREKVKSSDEAVILCKTAIGALKLNIGDLQVTKETIEDVEEMLNNLPGVTSVHSRFYDLSSKYYQTIGNHASYYKDALRFLGCVDIKDLPVSEQQERAFTLGLAGLLGEGVFNFGELLMHPVLESLRNTDRQWLIDTLYAFNSGNVERFQTLKTAWGQQPDLAANEAQLLRKIQLLCLMEMTFTRPANHRQLTFEEIAKSAKITVNEVELLVMKALSVGLVKGSIDEVDKRVHMTWVQPRVLDLQQIKGMKDRLEFWCTDVKSMEMLVEHQAHDILT | soluble
MGSDKIHHHHHHMADGGSERADGRIVKMEVDYSATVDQRLPECAKLAKEGRLQEVIETLLSLEKQTRTASDMVSTSRILVAVVKMCYEAKEWDLLNENIMLLSKRRSQLKQAVAKMVQQCCTYVEEITDLPIKLRLIDTLRMVTEGKIYVEIERARLTKTLATIKEQNGDVKEAASILQELQVETYGSMEKKERVEFILEQMRLCLAVKDYIRTQIISKKINTKFFQEENTEKLKLKYYNLMIQLDQHEGSYLSICKHYRAIYDTPCIQAESEKWQQALKSVVLYVILAPFDNEQSDLVHRISGDKKLEEIPKYKDLLKLFTTMELMRWSTLVEDYGMELRKGSLESPATDVFGSTEEGEKRWKDLKNRVVEHNIRIMAKYYTRITMKRMAQLLDLSVDESEAFLSNLVVNKTIFAKVDRLAGIINFQRPKDPNNLLNDWSQKLNSLMSLVNKTTHLIAKEEMIHNLQ | not soluble
MAEPVQEELSVLAAIFCRPHEWEVLSRSETDGTVFRIHTKAEGFMDADIPLELVFHLPVNYPSCLPGISINSEQLTRAQCVTVKEKLLEQAESLLSEPMVHELVLWIQQNLRHILSQPETG | soluble
RRNINVVLHEDSKALDEVVIVGYGKQKKESVVVSMSSIKPKDIVVPSRSLNNSLAGQVAGLIAVQRSGEPGYDNAEFWIRGVSTFAGGTSPLVLVDGVPRNMSDIEPDEIETFSVLKDAAATAIYGAEGANGVVLVTTKRGRVEK | not soluble
MAHHHHHHMSQTATAGPALPPPEEPLTYPITFTKQAEESPQSEPGVAAPAAPSGLHQISIFSALHFLLPVYELAGWLPKTTVQHSRKSGDKSSPVSATAGGSKSTSGTAADVSIDLDAIPHDDVRAALRLLPVFEKFFVEGSKIVAQHTDLYYFIESFTLPTPKGPKVITRSKVEGDYRAVHQPSHAPASLGAAGAMTKTTVTNSTAYFSLLPGHNQFLLYYEDCEKLRHFTYLQLDQLRFAWVAVKELLEESKVFNLSDGSLTGLAKRDLQKNNTASPFCLASSAQAATATERASSHDNGSNGGAVIGRGGGNARLHQGTSGNVITAPSKETTEEKKRIQQMSFLREELEHECQRRWPYTPVSKSCIFSLEEKVEAELPADALEQLGIVGAHNTRNSKNGNRRGPRYYLATVDLPLLNKKGGAARFKAPRWWNNRRDAESAAAEATLLALRSMKS | not soluble
MGSDKIHHHHHHMGVQSAVRVHRAISEIGQDAWDACAASTGDPFVSYDFLSILEESGCVAARTGWAPQHLTVLDEADQVAGVMPLYLKSHSQGEYVFDHSWADAYERAGGRYYPKLQCSSPFSPVTGSRLIVRPDIDAAEGRSALMGGALTLCERMGASSLHVTFPVEDQWRWMGERGMLLRQDQQYHWENRGYETFDDFLGALSANRRKTIRRERRDAQEGLEIVALTGADLTEDHWDAFFAFYMDTGGRKWGRPYLNRPFFSLLGQRMADKVLLILARRPGGPFIAGALNLLGRDCLYGRHWGCVEDAPFLHFELCYYQAIEHAIRLGLPRVEAGAQGQHKIARGYLPSAVYSAHWIADPMLREPVARYLERERAAVESDMEMLTEEYSPFREER | not soluble
MVARSEEIVIVEEDTTAKCLMLLSRVGECGGGCGGDERVFRCKTCLKEFSSFQALGGHRASHKKLINSDNPSLLGSLSNKKTKTSHPCPICGVKFPMGQALGGHMRRHRNEKVSGSLVTRSFLPETTTVTALKKFSSGKRVACLDLDLDSMESLVNWKLELGRTISWS | not soluble
MKTVLAFGDSLTWGADPATGLRHPVEHRWPDVLEAELAGKAKVHPEGLGGRTTCYDDHAGPACRNGARALEVALSCHMPLDLVIIMLGTNDIKPVHGGRAEAAVSGMRRLAQIVETFIYKPREAVPKLLIVAPPPCVAGPGGEPAGGRDIEQS | not soluble
MKTQFIAGHARLPAGMAAKSLYDTLTITAEIDKKYGVIVEASCTLATEHGRDYVARLLRGHSLRDGIDGLLAELDEGYLGKAHSALCAALKDLYKQYCKMEEKEP | not soluble
MKHMLIAGGGIGGLSAAISLRKAGFSVTLCEAASENRKTGAGILQPQNALAVLKELGVFEDCCKHGFQTEWFKTFDEQGNLLFQVSESFLDDSLPGRNNILRKTLNDILMKHAEAVGVDIKWGKKVVAYEETAESVTALCEDGEKMQADILAGFDGIHSVVRDKMLQKETEKEHLGMGAWRFYIELPDYTFEDATFMYRSGDTQIGVVPLAQHAGYVFVLQPCTSDYWDEEDTRFDRVKEILSGFRGLDFVTKHMSKQHPVIFNKLEQVAVQEPWHKGRVIIGGDAAHAGAPTLAQGAAMAIEDAIVLAEELQNHADHETALQAYYKRRAPRALKVQNLSSEIVRRRLKGEPGAEELIGECYAVLREGYLEHHHHHH | not soluble
MADKKAPAAGWPVANGEYVVGNPESCVAVITLGSHGLDQAAIDAGAAISGPCHTENLGIEKVVANYISNPNIRFMVIAGSEVQGHITGQCIKALYENGIGDDGGIIGAKGAIPFMENVGKEPVGRLQTQVVECIDLIDVEDKGKIADAIKNCISKDPGAFEEDPMVIELEGGAAAAGDESTSIKPTSPEMALLEARMRIVSEKMNEAAMIAKFNSGYYNGK | not soluble
MASLSYPKTTMQIQLGANLKPYHTFGIEQLAAQLVVAESIDDLKALYCSAEWASLPKLIIGKGSNMLFTCHYTGMIVVNRLNGIEHQQDDDYHRLHVAGGEDWPSLVSWCVEQGIGGLENLALIPGCAGSAPIQNIGAYGVEFKDVCDYVEYLCLETGTVKRLTMEECQFGYRDSIFKHQLYQKAVVTAVGLKFAKAWQPIIQYGPLKDLSSDCAIHDVYQRVCATRMEKLPDPAVMGNAGSFFKNPVISQQAFARLQIEHPDVVAYPAEQGVKVAAGWLIDQAGLKGHQIGGAKVHPKQALVIVNTGDASAQDVLMLAADIQQRVFNCYGIELEHEVRFIGESEETNLKQWMSEQA | soluble
ILVKNLPQDSNCQEVHDLLKDYDLKYCYVDRNKRTAFVTLLNGEQAQNAIQMFHQYSFRGKDLIVQLQPTDALLC | soluble
MGSSHHHHHHSSGLVPRGSHMGSEGGPALFQSDMTFKIFIDGEVNGQKFTIVADGSSKFPHGDFNVHAVCETGKLPMSWKPICHLIQYGEPFFARYPDGISHFAQECFPEGLSIDRTVRFENDGTMTSHHTYELDDTCVVSRITVNCDGFQPDGPIMRDQLVDILPNETHMFPHGPNAVRQLAFIGFTTADGGLMMGHFDSKMTFNGSRAIEIPGPHFVTIITKQMRDTSDKRDHVCQREVAYAHSVPRITSAIGSDED | soluble
EKKQAEEALIRSENNFRTLAENSPDIISRFDRQNRHIYVNPAAEEPYGRPPEEIIGKTHSELGMDPEKVKLWESHHEKVFATGKPESMEFGYTSSQGKEYYFNTQVVPEFIDGKVTSILVISHNIT | not soluble
MSLKDPLSEALVRLNQKVDSELIPEIKRFPLIGISTDISPKRTAVNTAYVQSVILSGGIPYMIPVTDNVEILRQIVSRLDGIVFTGGEDIQPMYYGDLPYEKLEEVSPARDTFDLMVLKMAADRNIPILGICRGLQLMNVAFGGTLYQDLPTQHPSSVNHRQKESGTTTTHPISIIKGSKLADITGQEVLQVNTFHHQAIQKLAPGFKITAWAPDSIAEAIEAYPIRQMIGVQFHPEIFTAAGDTTMHKLFKFLVNKADEGHHHHHH | not soluble
ATDTGGYAATAGGNVTGAVSKTATSMQDIVNIIDAARLDANGKKVKGGAYPLVITYTGNEDSLINAAAANICGQWSKDPRGVEIKEFTKGITIIGANGSSANFGIWIKKSSDVVVQNMRIGYLPGGAKDGDMIRVDDSPNVWVDHNELFAANHECDGTPDNDTTFESAVDIKGASNTVTVSYNYIHGVKKVGLDGSSSSDTGRNITYHHNYYNDVNAKLPLQRGGLVHAYNNLYTNITGSGLNVRQNGQALIENNWFEKAINPVTSRYDGKNFGTWVLKGNNITKPADFSTYSITWTADTKPYVNADSWTSTGTFPTVAYNYSPVSAQCVKDKLPGYAGVGKNLATLTSTACK | soluble
MSLIMITAEMVPPDLLIKRLAIYLKENVKTVDPPEWALLAKTASFKERVPDNAEDWWYIRAASLLRKLYVNSIIGIEKTRTIYGGRKRRGTRPEKFVKAPGHVNRLIFQQLEKAGLVQKIKNKGRSLSPKGRSLLDKLALEIFKELAENNTSLKVYLELEHHHHHH | soluble
MIDIIANIASILGFTMQMNDKFFAHGMNKEQADNEMLLLFLKQLSVKSKAIKEIHQKYHSLSNDFRLVAVFLTNPVIYEKIVTNRSRALRNALKESLQTPSARIAQTQLSAQLRPCFENLLVSIKDESHLSVEFSGINDCEMKAILRKILNAQKEIFQLHQQFCGIMKTIGSYPLGNWGDSEFDFIKTNQRVFISDFYSIIDYADIILMGYLDIYHCALNLK | not soluble
RPQTTNSWQNSEIEGIDIMLAIDVSTSMLAEDLKPNRLEAAKDVAAEFINGRPNDNIGITLFAGESFTQCPLTVDHAVLLNLFQGIQCDIIEDGTAVGMGIANAVTRLKDSKAKSKVIILLTDGTNNKGDISPLTAAEIAKSFGIRVYTIGVGTNGMAPYPVRVGGTTQYINTPVEIDEKTLTQIAGTTDGNYFRATSNSKLKEVYEEI | not soluble
MGSDKIHHHHHHMKEKVVLAYSGGLDTSVILKWLCEKGFDVIAYVANVGQKDDFVAIKEKALKTGASKVYVEDLRREFVTDYIFTALLGNAMYEGRYLLGTAIARPLIAKRQVEIAEKEGAQYVAHGATGKGNDQVRFELTYAALNPNLKVISPWKDPEFLAKFKGRTDLINYAMEKGIPIKVSKKRPYSEDENLMHISHEAGKLEDPAHIPDEDVFTWTVSPKDAPDEETLLEIHFENGIPVKVVNLKDGTEKTDPLELFEYLNEVGAKNGVGRLDMVENRFIGIKSRGVYETPGATILWIAHRDLEGITMDKEVMHLRDMLAPKFAELIYNGFWFSPEMEFLLAAFRKAQENVTGKVTVSIYKGNVMPVARYSPYSLYNPELSSMDVEGGFDATDSKGFINIHALRLKVHQLVKKGYQR | soluble
SQELTLSPGPAKLTPTLDPTHRMELILSTSPAELTLDPACQPKLPLDSTCQPEMTFNPGPTELTLDPEHQPEETPAPSLAELTLEPVHRRPELLDACADLINDQWPRSRTSRLHSLGQSSDAFPLCLMLLSPHPTLEAAPVVVGHARLSRVLNQPQSLLVETVVVARALRGRGFGRRLMEGLEVFARARGFRKLHLTTHDQVHFYTHLGYQLGEPVQGLVFTSRRLPATLLNAFPTAPSPRPPRKAPNLTAQAAPRGPKGPPLPPPPPLPECLTISPPVPSGPPSKSLLETQYQNVRGRPIFWMEKDI | soluble
